In paper PMC12102759:

B1: ATXN2 peptide 911-926 (Ataxin-2), 16-mer library wild type / PABPC1 PABC (PABPC1 PABC domain, residues 544-623) (parent)
chain 1: KSTLNPNAKEFNPRSF
chain 2: PLTASMLASAPPQEQKQMLGERLFPLIQAMHPTLAGKITGMLLEIDNSELLHMLESPESLRSKVDEAVAVLQAHQAKEAA
B2: MXI1 peptide 6-21 (Max-interacting protein 1), 16-mer library wild type / SIN3A PAH2 (SIN3A PAH domain, residues 295-383) (parent)
chain 1: MINVQRLLEAAEFLER
chain 2: SLQNNQPVEFNHAINYVNKIKNRFQGQPDIYKAFLEILHTYQKEQRNAKEAGGNYTPALTEQEVYAQVARLFKNQEDLLSEFGQFLPDA

Variants of: B1
Test: proteomic peptide phage display deep mutational scan (ProP-PD DMS): M13 P8 16-mer library selected against immobilised GST-tagged bait for four days (rounds), NGS of the eluted pools per day and pseudo-replica
Details: with PABPC1 PABC (PABPC1 PABC domain, residues 544-623); bait immobilised on MaxiSorp plates (10 µg), library pre-cleared on GST, 2 h binding at 4 °C, five washes; one round per day, days 1-4; value from days 2 and 3; scale: average fractional NGS count over selection days 2 and 3

| Variant | screen value |
| --- | --- |
| chain 1 KSTLNPNAKEFNPRSD [chain 1 F16D] | 0.000103 |
| chain 1 KSTLNPAAKEFNPRSF [chain 1 N7A] | 0.000105 |
| chain 1 KSTLNPNAKEFNARSF [chain 1 P13A] | 0.000212 |
| chain 1 KSHLNPNAKEFNPRSF [chain 1 T3H] | 8.48e-05 |
| chain 1 KSTYNPNAKEFNPRSF [chain 1 L4Y] | 0 |
| chain 1 KSTLNPNAKEWNPRSF [chain 1 F11W] | 0.000158 |
| chain 1 KSTLNPNAKEFNPGSF [chain 1 R14G] | 0.0017 |
| chain 1 KSTLNPNAKEVNPRSF [chain 1 F11V] | 0 |
| chain 1 KSTLNPNAKEFNPNSF [chain 1 R14N] | 0.000117 |
| chain 1 KSTLNPNAKEFNPRSS [chain 1 F16S] | 0.000134 |
| chain 1 KSTLNPNAKEFDPRSF [chain 1 N12D] | 0.00012 |
| chain 1 KSTLNPNRKEFNPRSF [chain 1 A8R] | 0 |
| chain 1 KSTLDPNAKEFNPRSF [chain 1 N5D] | 0 |
| chain 1 KSTLNPHAKEFNPRSF [chain 1 N7H] | 0.000328 |
| chain 1 KSKLNPNAKEFNPRSF [chain 1 T3K] | 0 |
| chain 1 KSTLNPNAKEFNWRSF [chain 1 P13W] | 0.000637 |
| chain 1 KSTLNPNAKEFNPRYF [chain 1 S15Y] | 0.000151 |
| chain 1 KSTLNPNAKEFNTRSF [chain 1 P13T] | 1.02e-05 |
| chain 1 KSTLNHNAKEFNPRSF [chain 1 P6H] | 4.64e-05 |
| chain 1 KSTLNPNAKEFNPRGF [chain 1 S15G] | 0 |
| chain 1 KLTLNPNAKEFNPRSF [chain 1 S2L] | 5.2e-05 |

| Variant | screen value |
| --- | --- |
| chain 1 KSTLNPNAKEFNPRSY [chain 1 F16Y] | 0.000515 |
| chain 1 KSTLQPNAKEFNPRSF [chain 1 N5Q] | 0 |
| chain 1 KSTLNPNAKEFNPHSF [chain 1 R14H] | 0.000471 |
| chain 1 KSTLNPNAKEFNPRHF [chain 1 S15H] | 0.000677 |
| chain 1 KETLNPNAKEFNPRSF [chain 1 S2E] | 0.000105 |
| chain 1 KSTLNPNAKEFNQRSF [chain 1 P13Q] | 0.00338 |
| chain 1 KSTLNPTAKEFNPRSF [chain 1 N7T] | 1.57e-05 |
| chain 1 KSTLNPNAGEFNPRSF [chain 1 K9G] | 0.000242 |
| chain 1 KSTLNPNSKEFNPRSF [chain 1 A8S] | 0 |
| chain 1 KSTLNPNAKDFNPRSF [chain 1 E10D] | 0 |
| chain 1 KSTLNPEAKEFNPRSF [chain 1 N7E] | 0.000331 |
| chain 1 KSTLNPNAKEFNPRPF [chain 1 S15P] | 0.000243 |
| chain 1 KTTLNPNAKEFNPRSF [chain 1 S2T] | 0.00018 |
| chain 1 KSTLNPNAKEFNPESF [chain 1 R14E] | 0.000187 |
| chain 1 KSTLNPNAKEFHPRSF [chain 1 N12H] | 0.000518 |
| chain 1 KSTLNPNAKEFNPVSF [chain 1 R14V] | 0.000569 |
| chain 1 KSTLNPNAKEFNPRST [chain 1 F16T] | 0.000108 |
| chain 1 KSTLNPNAKEFNPRSA [chain 1 F16A] | 0.00041 |
| chain 1 KSTLNPVAKEFNPRSF [chain 1 N7V] | 0.000181 |
| chain 1 KSTLNPRAKEFNPRSF [chain 1 N7R] | 5.23e-05 |
| chain 1 KSTLNPNAYEFNPRSF [chain 1 K9Y] | 0.000884 |

| Variant | screen value |
| --- | --- |
| chain 1 KSTLNPNIKEFNPRSF [chain 1 A8I] | 0 |
| chain 1 KSTLNANAKEFNPRSF [chain 1 P6A] | 0 |
| chain 1 KSELNPNAKEFNPRSF [chain 1 T3E] | 0.00159 |
| chain 1 KSTLNPNAKEFNPWSF [chain 1 R14W] | 0.00286 |
| chain 1 KSTLNPQAKEFNPRSF [chain 1 N7Q] | 0.000449 |
| chain 1 KSTLNLNAKEFNPRSF [chain 1 P6L] | 0.000389 |
| chain 1 KSTLNPLAKEFNPRSF [chain 1 N7L] | 0.000441 |
| chain 1 KSTLNPNAKEFNPSSF [chain 1 R14S] | 0.00103 |
| chain 1 KSTLNPNAKQFNPRSF [chain 1 E10Q] | 0 |
| chain 1 KMTLNPNAKEFNPRSF [chain 1 S2M] | 0.00187 |
| chain 1 KSTLNPNAKEFLPRSF [chain 1 N12L] | 0 |
| chain 1 KSTLNPNAKEFIPRSF [chain 1 N12I] | 0.000365 |
| chain 1 KSTLNPNAKEFAPRSF [chain 1 N12A] | 0.00161 |
| chain 1 KSTLNPNAKTFNPRSF [chain 1 E10T] | 0.000321 |
| chain 1 KSTLNPNAAEFNPRSF [chain 1 K9A] | 0.000101 |
| chain 1 KDTLNPNAKEFNPRSF [chain 1 S2D] | 0.000114 |
| chain 1 KYTLNPNAKEFNPRSF [chain 1 S2Y] | 0.00178 |
| chain 1 KSTLNPNAKEFNLRSF [chain 1 P13L] | 0.00026 |
| chain 1 KSTFNPNAKEFNPRSF [chain 1 L4F] | 0 |
| chain 1 KGTLNPNAKEFNPRSF [chain 1 S2G] | 0.000237 |
| chain 1 KSTLNPNAKEFNPFSF [chain 1 R14F] | 0.000523 |

| Variant | screen value |
| --- | --- |
| chain 1 KSTLNPNAFEFNPRSF [chain 1 K9F] | 0.000915 |
| chain 1 KSTLAPNAKEFNPRSF [chain 1 N5A] | 0 |
| chain 1 KSTLNPSAKEFNPRSF [chain 1 N7S] | 0.000455 |
| chain 1 KHTLNPNAKEFNPRSF [chain 1 S2H] | 0.00026 |
| chain 1 KSMLNPNAKEFNPRSF [chain 1 T3M] | 0.000543 |
| chain 1 KSTLNPNAKEYNPRSF [chain 1 F11Y] | 0.000235 |
| chain 1 KSTLNPNAKEFNPMSF [chain 1 R14M] | 9.46e-05 |
| chain 1 KSTLNPNAKEFNDRSF [chain 1 P13D] | 1.92e-05 |
| chain 1 KSTLNPNAQEFNPRSF [chain 1 K9Q] | 0.001 |
| chain 1 KSTLNPNAKEFNPQSF [chain 1 R14Q] | 0.00156 |
| chain 1 KSGLNPNAKEFNPRSF [chain 1 T3G] | 0.000528 |
| chain 1 KSTLSPNAKEFNPRSF [chain 1 N5S] | 2.4e-05 |
| chain 1 KSTLNPNAKEFNPRIF [chain 1 S15I] | 0.000221 |
| chain 1 KSTLNPNASEFNPRSF [chain 1 K9S] | 0.0022 |
| chain 1 KSTLNPNAKEFNPRSL [chain 1 F16L] | 0.00151 |
| chain 1 KSTLNPNAKEFNPRNF [chain 1 S15N] | 0.000583 |
| chain 1 KSTLNPNAKEFNPASF [chain 1 R14A] | 0.00158 |
| chain 1 KSTLNPNAKEFNFRSF [chain 1 P13F] | 0.00012 |
| chain 1 KSTLNPNAKEFNVRSF [chain 1 P13V] | 0.031 |
| chain 1 KSTLNPDAKEFNPRSF [chain 1 N7D] | 0.000764 |
| chain 1 KSTLNPNAKHFNPRSF [chain 1 E10H] | 0.000717 |

Variants of: B2
Test: as above
Details: with SIN3A PAH2 (SIN3A PAH domain, residues 295-383); bait immobilised on MaxiSorp plates (10 µg), library pre-cleared on GST, 2 h binding at 4 °C, five washes; one round per day, days 1-4; value from days 2 and 3; keep out of graded; scale: average fractional NGS count over selection days 2 and 3

| Variant | screen value |
| --- | --- |
| chain 1 MINSQRLLEAAEFLER [chain 1 V4S] | 0 |
| chain 1 MINVQRLLEAAEILER [chain 1 F13I] | 1.91e-05 |
| chain 1 MINVQFLLEAAEFLER [chain 1 R6F] | 4.27e-05 |
| chain 1 LINVQRLLEAAEFLER [chain 1 M1L] | 3.46e-05 |
| chain 1 MINGQRLLEAAEFLER [chain 1 V4G] | 6.66e-05 |
| chain 1 MINVQRLLERAEFLER [chain 1 A10R] | 0 |
| chain 1 MIRVQRLLEAAEFLER [chain 1 N3R] | 4.48e-05 |
| chain 1 MINVQRMLEAAEFLER [chain 1 L7M] | 0 |
| chain 1 MINVQRLAEAAEFLER [chain 1 L8A] | 2.84e-05 |
| chain 1 MINMQRLLEAAEFLER [chain 1 V4M] | 7.16e-05 |
